Measured values from patent US20250108119A1, “NOVEL STEROID PAYLOADS, STEROID LINKERS, ADCs CONTAINING AND USE THEREOF” (IMMUNEXT, INC., priority 2021, published 2025).
“Also recorded” adds a separate entry of the source.

Experiments:
[1] = molecular target: CD163 on human blood cells (human) (UniProt Q86VB7); assay: flow cytometry, AF647-labelled antibody, bead-calibrated; CD14+ monocytes, human PBMC, n=5 donors, mean±SD
[2] = molecular target: CD163 on human blood cells (human) (UniProt Q86VB7); assay: flow cytometry, AF647-labelled antibody, bead-calibrated; CD14+ monocytes, human whole blood, n=3 donors, mean±SD
[3] = test system: human PBMC; assay: Identification and quantification of released payload in human PBMC (MS); format: in vitro ADME; details: 4 hrs, same antibody
Experimental: In all the following experiments, human PBMC, isolated from 1 healthy donor per study, were treated with exemplary anti-VISTA glucocorticoid conjugates according to the invention to allow identification and quantification of the released payload.
In the present experiments, after incubating PBMC with glucocorticoid (GC) antibody drug conjugates (ADC) for 4h, cells were harvested and assessed for both FKBP5 transcription induction via quantitative real time PCR (qPCR) as well as assessed via mass spectrometry (MS) for released payload identification and quantification.
Isolated PBMCs were resuspended in RPMI 1640 containing 10% human AB serum, 10 mM Hepes, 1× Penicillin/Streptomycin/L-Glutamine (assay media).
PBMCs from 1 donor were washed 2× in PBS, and then resuspended at 1×10^7/mL in media. […]
Remaining cells for each treatment were dived into aliquots representing 50 million cells per aliquot (for metabolite quantification only one aliquot per condition was generated). […]
Media was removed from each cell pellet with the media then set aside at −80C until it could be assessed for the concentration of effluxed payload. […]
Briefly, pre-chilled 70% ACN (extraction buffer) was added to the PBMC pellets for extraction. […] was injected onto the LCMS (Luna C18 (2) column, Thermo Scientific Q Exactive Hybrid Quadrupole Orbitrap) and resulting masses assessed. […]

[4] = test system: peritoneal resident macrophages (PRM); assay: In vivo treatment/ex vivo PRM activation, TNFα and IL-6 in supernatant; parameters: species or system hVISTA mice; details: linker/payloads as anti-VISTA conjugates
[5] = test system: FKBP5; assay: FKBP5 transcription in isolated human monocytes, B cells and Tregs; format: cell-based; details: Experiment 3: 20 nM payload, 2 donors
Description: Monocytes or B cells were isolated from healthy donor blood samples and treated with free steroid, anti-VISTA conjugated steroid, or conjugated isotype control. RNA was isolated, and change in FKBP5 transcript level assessed by qPCR.
The various immune populations were isolated using different cell isolation kits and following manufacturer instructions: • EasySep Human monocyte enrichment kit without CD16 depletion (StemCell cat #19058) • Pan B cell isolation kit, human (Miltenyi Biotec, 130-101-638). • EasySep™ Human CD4+CD127 low CD49d-regulatory T cell enrichment Kit (StemCell cat #19232)
Monocytes, B cells or Tregs were plated (from single donors) at 2×10^6 cells per well in a 12-well plate in RPMI, 10% human AB serum, 10 mM Hepes, 1× Penicillin/Streptomycin/Glutamine.
For single dose experiments, cells were treated with 20 nM free J payload or INX-SM-3 payload or the molar payload equivalent of huIgG1si J, INX201J or INX231P (the linked form of INX-SM-3). […]
After one wash with PBS, RNA was isolated from cell pellets using either the RNeasy Plus Mini kit (Qiagen, PN: 74136) or NucleoSpin RNA Plus (Macherey-Nagel #740984.250). […] RNA concentration was assessed by UV spectroscopy using a Nanodrop 2000. […]
Quantitative Real-Time PCR was done using Taqman master mix 2× kit (#4369016) and run on a QuantStudio3 from Applied Biosystem. […]

[6] = test system: LPS stimulated human PBMCs; assay: LPS stimulated human PBMC, IL-1β and IL-6 ELISA; format: cell-based
Outline: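 Human PBMC (1-2 healthy donors), 150,000 cells/well, treated with test agents at 1,000 nM down to 1 nM or 0.2 nM, in duplicate. LPS at 1 ng/ml added immediately after free payload or 4 h after conjugates; IL-1β and IL-6 in supernatants measured by ELISA.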

[7] = test system: human PBMC; assay: Cytokine production (IL-1β, IL-6) at 24 hr by human PBMC incubated with 1 ng/mL LPS; format: cell-based; details: free steroid payloads, serial dilutions, 1 ng/mL LPS, 24 hr
Outline: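 Human PBMC were stimulated with 1 ng/mL LPS together with serial dilutions of steroid payloads or glucocorticoid conjugates, spanning up to 8,000 nM down to 0.032 nM depending on the series. IL-1β and IL-6 were measured at 24 hr from technical duplicates, with 1-2 donors. Values above the ULOQ were extrapolated.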

[8] = molecular target: T1, human VISTA on cells (human, UniProt Q9H7M9 33-311); assay: flow cytometry, AF488-labelled antibody on CD14+ monocytes of human PBMC, MFI normalised to INX200 at t=0
T1 sequence: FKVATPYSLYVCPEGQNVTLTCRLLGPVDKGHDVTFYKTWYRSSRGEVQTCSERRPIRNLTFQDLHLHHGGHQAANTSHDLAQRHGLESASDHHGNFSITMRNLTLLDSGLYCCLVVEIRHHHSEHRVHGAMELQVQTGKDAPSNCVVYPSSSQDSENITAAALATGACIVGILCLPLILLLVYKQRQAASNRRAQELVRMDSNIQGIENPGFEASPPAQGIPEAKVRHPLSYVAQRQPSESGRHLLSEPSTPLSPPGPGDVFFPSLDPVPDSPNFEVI

[9] = molecular target: T1, human VISTA on cells; assay: cell-based or functional assay
[10] = molecular target: T2, hIX50 (human VISTA ECD, produced at Aragen Bioscience) (human, UniProt Q9H7M9 33-194, biotinylated in the pH ELISA (sites not given)); assay: ELISA at pH 7.5: INX200 coated at 1 ug/mL; biotinylated hIX50 titrated at 0.001-1000 ng/mL; streptavidin-HRP/TMB; OD 450 nm. The value is a concentration of hIX50.
T2 construct: also called hINX50; soluble VISTA
T2 sequence: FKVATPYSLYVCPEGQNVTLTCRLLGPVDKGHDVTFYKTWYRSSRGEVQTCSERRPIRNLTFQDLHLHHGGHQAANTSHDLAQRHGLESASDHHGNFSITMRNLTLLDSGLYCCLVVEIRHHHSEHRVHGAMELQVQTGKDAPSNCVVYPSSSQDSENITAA

[11] = molecular target: T2, hIX50 (human VISTA ECD, produced at …); assay: ELISA: hIX50 coated at 1 ug/mL; antibody titrated in PBS/Tween/BSA; mouse anti-human kappa-HRP/TMB; OD 450 nm.

Chain of CD163 on human blood cells (human) (Q86VB7 42-1156): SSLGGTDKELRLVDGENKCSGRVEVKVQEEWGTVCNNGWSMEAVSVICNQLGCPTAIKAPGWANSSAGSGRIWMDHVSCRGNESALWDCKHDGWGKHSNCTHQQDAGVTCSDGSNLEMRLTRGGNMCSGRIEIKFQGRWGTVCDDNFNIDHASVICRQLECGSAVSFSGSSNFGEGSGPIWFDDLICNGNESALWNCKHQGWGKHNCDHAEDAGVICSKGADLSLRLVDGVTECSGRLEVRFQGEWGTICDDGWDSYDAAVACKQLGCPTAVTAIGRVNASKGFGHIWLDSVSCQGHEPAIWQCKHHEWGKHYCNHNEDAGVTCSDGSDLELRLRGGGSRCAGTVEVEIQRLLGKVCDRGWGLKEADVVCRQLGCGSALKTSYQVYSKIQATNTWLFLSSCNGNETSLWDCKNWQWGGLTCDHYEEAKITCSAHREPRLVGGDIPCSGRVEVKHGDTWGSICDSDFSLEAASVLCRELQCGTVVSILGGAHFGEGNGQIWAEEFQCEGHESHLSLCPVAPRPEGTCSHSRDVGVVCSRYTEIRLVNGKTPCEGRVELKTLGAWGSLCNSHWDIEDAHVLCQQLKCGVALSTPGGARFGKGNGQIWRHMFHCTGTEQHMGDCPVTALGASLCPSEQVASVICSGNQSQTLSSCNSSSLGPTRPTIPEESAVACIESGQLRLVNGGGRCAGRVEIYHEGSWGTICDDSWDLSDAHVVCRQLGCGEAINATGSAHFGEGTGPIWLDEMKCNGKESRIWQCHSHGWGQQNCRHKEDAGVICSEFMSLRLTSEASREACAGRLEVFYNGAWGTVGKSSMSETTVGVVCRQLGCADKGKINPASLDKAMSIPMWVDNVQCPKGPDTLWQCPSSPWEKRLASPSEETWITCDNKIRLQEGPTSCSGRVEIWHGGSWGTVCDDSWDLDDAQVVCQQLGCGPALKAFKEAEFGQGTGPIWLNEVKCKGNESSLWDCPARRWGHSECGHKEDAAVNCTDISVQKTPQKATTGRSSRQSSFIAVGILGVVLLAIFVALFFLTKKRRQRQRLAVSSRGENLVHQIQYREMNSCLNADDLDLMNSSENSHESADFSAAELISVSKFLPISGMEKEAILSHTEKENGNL

## CD163 Alexa Fluor 647 clone GHI/61 (BioLegend) (antibody)
[1]
  antibody binding capacity (ABC) (ABC (molecules per cell)): 36700
[2]
  antibody binding capacity (ABC) (ABC (molecules per cell)): 13100

## C[C@]12C=CC(=O)C=C1CC[C@@H]1[C@@H]2[C@@H](O)C[C@@]2(C)[C@H]1C[C@H]1O[C@@H](c3ccc(CC45CC(NC(=O)[C@H](CCC(=O)O)NC(=O)CNC(=O)CBr)(C4)C5)cc3)O[C@]12C(=O)CO [INX P, (S)-4-(2-(2-bromoacetamido)acetamido)-5-((3-(4-((6aR,6bS,7S,8aS,8bS,10R,11aR,12aS,12bS)-7-hydroxy-8b-(2-hydroxyacetyl)-6a,8a-dimethyl-4-oxo-2,4,6a,6b,7,8,8a,8b,11a,12,12a,12b-dodecahydro-1H-naphtho[2′,1′:4,5]indeno[1,2-d][1,3]dioxol-10-yl)benzyl)bicycle[1.1.1]pentan-1-yl)amino)-5-oxopentanoic acid]
[3]
  released payload relative to INX J / INX231J: ~3 ×
[4]
  potency in PRM cytokine model when dosed 7 days early (conclusions): show similar potency when dosed 7 days early

## C[C@]12C=CC(=O)C=C1CC[C@@H]1[C@@H]2[C@@H](O)C[C@@]2(C)[C@H]1C[C@H]1O[C@@H](c3ccc(CC45CC(N)(C4)C5)cc3)O[C@]12C(=O)CO [INX-SM-3, (6aR,6bS,7S,8aS,8bS,10R,11aR,12aS,12bS)-10-(4-((3-aminobicyclo[1.1.1]pentan-1-yl)methyl)phenyl)-7-hydroxy-8b-(2-hydroxyacetyl)-6a,8a-dimethyl-1,2,6a,6b,7,8,8a,8b,11a,12,12a,12b-dodecahydro-4H-naphtho[2′,1′:4,5]indeno[1,2-d][1,3]dioxol-4-one]
[5]
  FKBP5 transcription in Tregs: lead to increased FKBP5 transcription
[6]; Experiment 1: free payload 1000-1 nM, 1 ng/ml LPS, 24 hr, n=1 donor
  inhibition of IL-1β and IL-6 production: inhibit both IL-1β and IL-6 production; also recorded: the most potent compound among these three
[6]; Experiment 2: free payload 1000-1 nM, 24 hr, n=1 donor
  inhibition of IL-1β production: show inhibition in IL-1β production; also recorded: again the most potent compound among these compounds tested
[6]; Experiment 8: free payload 1000-0.5 nM
  inhibition of IL-1β production: robust inhibition in IL-1B production
[7]
  inhibition of IL-1β production: inhibit; also recorded: robust inhibition
  inhibition of IL-6 production: inhibit

## Human IgG1si (antibody)
[8]
  nonspecific signal at 0 min relative to INX200 (MFI, percent): 5.9%

B1: INX201J (other)
VH: QVQLVQSGAEVKKPGASVKVSCKASGYTFANYLIGWVRQAPGQRLEWMGDIYPGGGFISYNEKFKGRVTITRDTSASTAYMELSSLRSEDTAVYYCARRFDYGGYFFDYWGQGTLVTVSS
VL: DIVMTQSPLSLPVTPGEPASISCRSSQSIVHSNGNIYLEWYLQKPGQSPQLLIYKVSNRFSGVPDRFSGSGSGTDFTLKISRVEAEDVGVYYCFQGSHVPWTFGQGTKLEIK
modifications: linker/payload INX J on the interchain disulfide cysteines; linker/payload INX J (protease sensitive linker, budesonide analog INX J-2) on the interchain disulfide cysteines, DAR 8.0
[9]
  FKBP5 transcription (qRT-PCR) in isolated human Tregs, 20 nM payload, against conjugated isotype control: 2.1 fold

B2: INX200 (antibody, human IgG1, V domains shown)
VH: B1 VH
VL: B1 VL
notes: also called humanized anti-human VISTA antibody on a human IgG1/kappa backbone with L234A/L235A silencing mutations
[10]
  EC50 (read off the curve): ~0.7 ng/mL
[11]
  EC50 (read off the curve): ~8 ng/mL
